Reference: publication PMC7335187 (2020)

Each binder was assayed against T1, Atg8 (1-116) K26P (S. cerevisiae, UniProt P38182 1-116, K26P) (assay: ITC).
T1 sequence: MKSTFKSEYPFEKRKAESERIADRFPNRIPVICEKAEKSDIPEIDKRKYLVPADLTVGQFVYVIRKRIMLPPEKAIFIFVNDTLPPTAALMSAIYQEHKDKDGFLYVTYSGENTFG

| Binder | Kd |
| --- | --- |
| TSTEFPNDADFMEDILDET [Atg40 peptide Y242A] | 32.7 µM |
| EFPNDYDFAEDILDET [Atg40^237–252 M245A peptide] | 21.7 µM |
| TSTEAPNDYDFMEDILDET [Atg40 peptide F238A] | 4.31 µM |

The binders below were run against GABARAP WT (human GABARAP 1-116) (human, UniProt O95166 1-116) (assay: ITC).
Sequence of GABARAP WT (human GABARAP 1-116) (O95166 1-116): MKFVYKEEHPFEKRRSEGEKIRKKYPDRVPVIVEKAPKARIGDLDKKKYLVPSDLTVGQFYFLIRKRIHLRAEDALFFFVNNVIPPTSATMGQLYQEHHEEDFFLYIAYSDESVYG

| Binder | Kd |
| --- | --- |
| GPEEDTDTEEGDDFALLDQSALDQIESELY [FAM134B444-470 E456A E462A peptide] | 3.39 µM |
| GPEEDTDTEEGDDFELLDQSELDQIESELY [FAM134B444-470 WT peptide] | 0.14 µM |
| NDFEMITKY [SEC62361-368 (Δhelix) peptide] | 3.38 µM |
| DDFELLDQY [FAM134B453-460 (Δhelix) peptide] | 2.54 µM |
| GPHSSGNGNDFEMITKEELEQQTDY [SEC62355-376 WT peptide] | 0.19 µM |
